Source: paper PMC5672941

Target: SpyTag fused to an elastin-like polypeptide with a C-terminal cysteine
Assay: core-shell assembly of protein-coated particles

Substance: SpyCatcher fused to an elastin-like polypeptide with a C-terminal cysteine (designed binder)
- percent of the core aggregate surface occupied by green (shell) particles: 60%
